Results as given in PMC4900556, “Connexin43 Forms Supramolecular Complexes through Non-Overlapping Binding Sites for Drebrin, Tubulin, and ZO-1” (PLoS ONE, 2016).

What was measured:
[1] = molecular target: 15N-labeled Cx43CT^234-382 Y265D, GST tag cleaved (UniProt P08050); test: NMR titration; 15N-HSQC, 600 MHz; 15N-labeled Cx43-CT constant at 50 μM in 1X PBS pH 7.5, unlabeled Drb^1-300 added from 50 to 700 μM; KD by nonlinear fitting of the decrease in signal intensity of at least three residues of each area
Chain of 15N-labeled Cx43CT^234-382 Y265D, GST tag cleaved (UniProt P08050) (P08050 234-382 Y265D): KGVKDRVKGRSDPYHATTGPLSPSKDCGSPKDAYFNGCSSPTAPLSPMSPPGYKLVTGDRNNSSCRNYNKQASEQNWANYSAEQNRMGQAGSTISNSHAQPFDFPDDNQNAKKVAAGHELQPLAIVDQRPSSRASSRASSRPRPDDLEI

[2] = molecular target: 15N-labeled Cx43CT^234-382 Y265D, GST tag cleaved (UniProt P08050 234-382, Y265D, 15N-labeled); test: NMR; Area 3 (residues K303, N312, S314)
[3] = molecular target: T1, 15N-labeled Cx43-CT^234-382 (WT), GST tag cleaved (UniProt P08050 234-382, 15N-labeled); test: NMR titration; 15N-HSQC, 600 MHz; 15N-labeled Cx43-CT constant at 50 μM in 1X PBS pH 7.5, unlabeled Drb^1-300 added from 50 to 700 μM; KD by nonlinear fitting of the decrease in signal intensity of at least three residues of each area; conditions: both partners purified
T1 construct: Construct used in the NMR titrations; source: E. coli BL21 DE3, purified (glutathione agarose), GST tag cleaved on the beads with Turbo 3C
T1 sequence (P08050 234-382): as the sequence (P08050 234-382 Y265D) above, with D32Y counted along it

KD of Area 3 [1]: 500 µM | Kd [2]: 466 µM | KD of Area 1 (264–275) [3]: 283 µM | KD of Area 2 (282–290) [3]: 279 µM | KD of Area 3 (299–321) [3]: 344 µM
B1: Drebrin A 1–300 (Drb^1-300), untagged (domain or fragment, UniProt Q9QXS6 1-300, looked up)
chain: MAGVSFSGHRLELLAAYEEVIREESAADWALYTYEDGSDDLKLAASGEGGLQELSGHFENQKVMYGFCSVKDSQAALPKYVLINWVGEDVPDARKCACASHVAKVAEFFQGVDVIVNASSVEDIDAGAIGQRLSNGLARLSSPVLHRLRLREDENAEPVGTTYQKTDAAVEMKRINREQFWEQAKKEEELRKEEERKKALDARLRFEQERMEQERQEQEERERRYREREQQIEEHRRKQQSLEAEEAKRRLKEQSIFGDQRDEEEESQMKKSESEVEEAAAIIAQRPDNPREFFRQQERV
notes: Drebrin A residues 1-300; also called drebrin amino acids 1–300; N-terminal fragment of drebrin; source: E. coli Rosetta cells, purified on glutathione-agarose column, GST tag digested and captured with a Thrombin kit
